Measurements: patent publication US20210275586A1

Biological target: CD20 antigen on CD20 positive Jeko-1 cells (human) (UniProt P11836)
Assay: flow cytometry on CD20+ Jeko-1 cells, secondary staining with anti-Biotin APC

Sequence of UniProt P11836 (P11836 whole entry): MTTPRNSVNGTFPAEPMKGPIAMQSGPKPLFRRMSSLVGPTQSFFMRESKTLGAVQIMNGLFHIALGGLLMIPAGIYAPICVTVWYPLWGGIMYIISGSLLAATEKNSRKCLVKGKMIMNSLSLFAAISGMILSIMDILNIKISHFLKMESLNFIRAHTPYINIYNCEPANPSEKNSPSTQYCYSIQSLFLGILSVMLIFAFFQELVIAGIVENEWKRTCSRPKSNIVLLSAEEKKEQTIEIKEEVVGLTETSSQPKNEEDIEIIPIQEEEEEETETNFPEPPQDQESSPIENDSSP

- lowest concentration at which binding was detected: 0.1 µg/mL
Substance: biotin-crosslinker conjugated anti-CD20 FAb (Rtx Fab MS2)
